Test results reported in patent US20180142016A1 (EUREKA THERAPEUTICS, published 2018).
Changes are numbered by the printed parent chain.

Target: T1, human ROR1 on the cell surface (human, UniProt Q01973 30-937)
T1 construct: Endogenous ROR1 of MDA-MB-231, A549, H1299, Jeko-1, primary CLL cells; also called cell surface ROR1; ROR1 positive cells
Test: flow cytometry, Zenon Alexa Fluor 647-labelled antibody on CD5+ CD19+ CLL cells of patient 13, MFI of the isotype control at the same concentration subtracted
Method: Anti-ROR1 and control IgG1 antibodies were labeled using a Zenon® Alexa Fluor® 647 human IgG labeling kit (Life Technologies) according to the manufacturer's directions. Frozen peripheral blood mononuclear cells (PBMC) from CLL patients (AllCells LLC) were thawed and washed in FACS buffer (PBS, 2% heat inactivated FBS, 0.1% NaN3). CLL cells were counted and resuspended at 4×10E6 cell/mL in FACS buffer. 2×10E5 cells per test were then incubated in […] FACS buffer with phycoerythrin (PE)-labeled anti-CD5, […] isothiocyanate (FITC)-labeled anti-CD19 (BD Biosciences) and Zenon® Alexa Fluor® 647-labelled anti-ROR1 or control human IgG1 ET901 (Eureka Therapeutics) for 30 minutes on ice. Following incubation, the cells were washed twice in FACS buffer and fixed in 2% paraformaldehyde in PBS (final concentration). Cells were run on a BD LSRII flow cytometer (BD Biosciences) and analyzed using FlowJo software (Treestar).
CLL cells identified as CD5 and CD19 double positive were assessed for anti-ROR1 or control Ig staining.

T1 sequence (Q01973 30-937 limits assumed): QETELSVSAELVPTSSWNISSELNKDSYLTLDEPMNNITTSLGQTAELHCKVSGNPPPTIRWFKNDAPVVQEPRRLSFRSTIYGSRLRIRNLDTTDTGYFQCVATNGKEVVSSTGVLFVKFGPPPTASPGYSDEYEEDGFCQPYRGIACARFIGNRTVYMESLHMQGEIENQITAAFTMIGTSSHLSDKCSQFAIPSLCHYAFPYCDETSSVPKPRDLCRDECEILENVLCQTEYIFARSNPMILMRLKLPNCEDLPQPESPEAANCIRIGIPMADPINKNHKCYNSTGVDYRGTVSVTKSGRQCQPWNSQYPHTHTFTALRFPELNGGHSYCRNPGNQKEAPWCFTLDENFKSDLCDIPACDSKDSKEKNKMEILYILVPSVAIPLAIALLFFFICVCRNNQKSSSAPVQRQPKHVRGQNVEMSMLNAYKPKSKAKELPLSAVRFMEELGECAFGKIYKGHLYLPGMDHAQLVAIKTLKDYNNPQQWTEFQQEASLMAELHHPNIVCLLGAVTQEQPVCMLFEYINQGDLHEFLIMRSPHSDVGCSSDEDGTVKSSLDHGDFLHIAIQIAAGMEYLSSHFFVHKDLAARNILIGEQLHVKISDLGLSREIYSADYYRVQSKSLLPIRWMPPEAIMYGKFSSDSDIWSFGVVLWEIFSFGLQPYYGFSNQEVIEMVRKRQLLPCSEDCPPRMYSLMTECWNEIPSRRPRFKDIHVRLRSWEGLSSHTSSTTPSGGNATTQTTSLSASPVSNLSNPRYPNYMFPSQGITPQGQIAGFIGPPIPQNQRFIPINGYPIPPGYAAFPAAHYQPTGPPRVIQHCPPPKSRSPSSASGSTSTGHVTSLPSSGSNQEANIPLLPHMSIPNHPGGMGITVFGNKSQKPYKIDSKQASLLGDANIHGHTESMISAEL

B1: 601-86 (antibody, V domains shown)
VH: QVTLKESGPTLLKPTQTLTLTCTFSGFSLSTRGVGVGWIRQPPGQALEWLTLIYWDDDKRYSPSLKSRLTITKDTSKNQVVLTMTNMESVDTATYYCAQQTMTGAFDIWGQGTTVTVSS
VL: DIQMTQSPSSVSASVGDRVTITCRASQGISTLLAWYQQKPGKAPKLLISSASSLQSGVPARFSGSGSGTDFTLTISSLQPEDFATYYCQQSYRAPTFGQGTKVEIK
modifications: Zenon Alexa Fluor 647 label, bound non-covalently to the Fc, is not carried in the letters
notes: the phage clone of the same number is m27; also called Antibody 601-86; copies: 2 + 2
B1: binds.

B2: 601-69 (antibody, V domains shown)
VH: QVQLVQSGAEVKKPGESLKISCKGSGYSFTSYWIGWVRQMPGKGLEWMGIIYPGDSDTRYSPSFQGQVTISADKSISTAYLQWSSLKASDTAMYYCARLSSSSYDAFDIWGQGTMVTVSS
VL: QSALTQPASVSGSPGQSITISCTGTSSDVGGYNYVSWYQQHPGKAPKLMIYDVSNRPSGVSNRFSGSKSGNTASLTISGLQAEDEADYYCSSYTSSSIPWVFGGGTKLTVL
modifications: Zenon Alexa Fluor 647 label, bound non-covalently to the Fc, is not carried in the letters
notes: the phage clone of the same number is m50; also called Antibody 601-69; copies: 2 + 2
B2: binds.

B3: 601-1 (antibody, V domains shown)
VH: EVQLVESGGGLVKPGGSLRLSCAASGFTFSDYYMSWIRQAPGKGLEWVSYISDSTNTIYYADSVKGRFTVSRDNPKNSLYLQMISLRAEDTAVYYCARAVGAGEGFDHWGQGTLVTVSS
VL: not shown
modifications: Zenon Alexa Fluor 647 label, bound non-covalently to the Fc, is not carried in the letters
notes: the phage clone of the same number is m13; also called Antibody 601-1; copies: 2 + 2
B3: binds.

B4: 601-43 (antibody, V domains shown)
VH: QVQLQQSGAEVKKPGASVRVSCKASGYSFGNNGITWVRQAPGQGLEWMGWISTYNGNTNYAQKLQGRVTMTTDTSTSTAYMELRSLRSDDTAVYYCARDYYSDSSGYWDDAFDIWGQGTTVTVSS
VL: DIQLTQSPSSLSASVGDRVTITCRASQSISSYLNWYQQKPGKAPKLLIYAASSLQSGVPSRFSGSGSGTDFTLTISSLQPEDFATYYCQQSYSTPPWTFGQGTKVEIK
modifications: Zenon Alexa Fluor 647 label, bound non-covalently to the Fc, is not carried in the letters
notes: the phage clone of the same number is m16; also called Antibody 601-43; copies: 2 + 2
B4: binds.

B5: 601-51 (antibody, V domains shown)
VH: not shown
VL: QSALTQPASVSGSPGQSITISCTGTSSDFGDYDYVSWYQQHPGKAPKLMIYDVSDRPSGVSNRFSGSKSGNTASLTISGLQAEDEADYFCSSFTTSSTLVFGGGTKLTVL
modifications: Zenon Alexa Fluor 647 label, bound non-covalently to the Fc, is not carried in the letters
notes: the phage clone of the same number is m19; also called Antibody 601-51; copies: 2 + 2
B5: binds.

B6: 601-56 (antibody, V domains shown)
VH: QLQLQESGPGLVKPSETLSLTCTVSGGSISSSSYYWGWIRQPPGKGLEWIGSIYYSGSTYYNPSLKSRVTISVDTSKNQFSLKLGSVTAADTAVYYCARHDGTDAFDIWGQGTTVTVSS
VL: B5 VL with A3V, F93L
modifications: Zenon Alexa Fluor 647 label, bound non-covalently to the Fc, is not carried in the letters
notes: the phage clone of the same number is m28; also called Antibody 601-56; copies: 2 + 2
B6: binds.

B7: 601-137 (antibody, V domains shown)
VH: QVQLQQSGAEVKKPGASVKVSCKASGYTFSRYYIHWVRQAPGQGLEWMGIINTDGGTTTYAQKFQGRLTMTRDTSTSTVYMELSSLRSDDTAVYYCARDYGTIDARRFDYWGQGTLVTVSS
VL: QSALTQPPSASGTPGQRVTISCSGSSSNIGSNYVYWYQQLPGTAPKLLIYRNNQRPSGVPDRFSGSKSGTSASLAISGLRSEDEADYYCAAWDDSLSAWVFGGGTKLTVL
modifications: Non-covalent Zenon Alexa Fluor 647 label in the assay, not part of the letters
notes: the phage clone of the same number is m26; also called Antibody 601-137; copies: 2 + 2
B7: binds.
